# Assay results published in the supplement of paper PMC10567573.
# B1: DLC1 (parent)
# chain: KRSWEEHVTHWMGQPFNSDDRNTA
# Variants of: B1
# Experiment: protein stability index of a GFP-peptide fusion (GPS, HEK-293T) (PSI 1-6); higher = more stable
# Conditions: c terminus: a fixed tail appended
# 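Note: lentivirally expressed fusions sorted by FACS into six bins by GFP to DsRed ratio, PSI derived from sequencing read proportions per bin multiplied by bin number.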
row,Variant,protein stability index
1,KRSWEEHVTHTMGQPFNSDDRNTA,2.49
2,KRSWEEHVTHPMGQPFNSDDRNTA,3.54
3,KRSWEEHVTHYMGQPFNSDDRNTA,2.82
4,KRSWEEHVTHVMGQPFNSDDRNTA,3.19
5,KRSWEEHVTHKMGQPFNSDDRNTA,3.61
6,KRSWEEHVTHQMGQPFNSDDRNTA,2.12
7,KRSWEEHVTHNMGQPFNSDDRNTA,2.26
8,KRSWEEHVTHRMGQPFNSDDRNTA,3.29
9,KRSWEEHVTHDMGQPFNSDDRNTA,2.33
10,KRSWEEHVTHGMGQPFNSDDRNTA,2.69
11,KRSWEEHVTHCMGQPFNSDDRNTA,2.48
12,KRSWEEHVTHEMGQPFNSDDRNTA,1.57
13,KRSWEEHVTHAMGQPFNSDDRNTA,2.97
14,KRSWEEHVTHIMGQPFNSDDRNTA,3.01
15,KRSWEEHVTHHMGQPFNSDDRNTA,2.95
16,KRSWEEHVTHLMGQPFNSDDRNTA,2.85
17,KRSWEEHVTHSMGQPFNSDDRNTA,2.53
18,KRSWEEHVTHFMGQPFNSDDRNTA,2.7
19,KRSWEEHVTHMMGQPFNSDDRNTA,2.54
20,KRSWEEHVTHWMGIPFNSDDRNTA,2.44
21,KRSWEEHVTHWMGAPFNSDDRNTA,3.23
22,KRSWEEHVTHWMGDPFNSDDRNTA,2.69
23,KRSWEEHVTHWMGYPFNSDDRNTA,2.6
24,KRSWEEHVTHWMGKPFNSDDRNTA,2.82

row,Variant,protein stability index
1,KRSWEEHVTHWMGRPFNSDDRNTA,3.47
2,KRSWEEHVTHWMGVPFNSDDRNTA,3.15
3,KRSWEEHVTHWMGGPFNSDDRNTA,2.29
4,KRSWEEHVTHWMGMPFNSDDRNTA,2.34
5,KRSWEEHVTHWMGNPFNSDDRNTA,2.75
6,KRSWEEHVTHWMGCPFNSDDRNTA,3.01
7,KRSWEEHVTHWMGPPFNSDDRNTA,2.84
8,KRSWEEHVTHWMGSPFNSDDRNTA,2.37
9,KRSWEEHVTHWMGTPFNSDDRNTA,2.31
10,KRSWEEHVTHWMGFPFNSDDRNTA,2.65
11,KRSWEEHVTHWMGWPFNSDDRNTA,2.03
12,KRSWEEHVTHWMGLPFNSDDRNTA,2.64
13,KRSWEEHVTHWMGEPFNSDDRNTA,1.71
14,KRSWEEHVTHWMGHPFNSDDRNTA,2.36
15,KRSWEEHVTHWMGQGFNSDDRNTA,2.43
16,KRSWEEHVTHWMGQDFNSDDRNTA,1.63
17,KRSWEEHVTHWMGQAFNSDDRNTA,2.95
18,KRSWEEHVTHWMGQLFNSDDRNTA,3.4
19,KRSWEEHVTHWMGQVFNSDDRNTA,2.27
20,KRSWEEHVTHWMGQNFNSDDRNTA,2.48
21,KRSWEEHVTHWMGQYFNSDDRNTA,2.79
22,KRSWEEHVTHWMGQFFNSDDRNTA,2.78
23,KRSWEEHVTHWMGQRFNSDDRNTA,2.41
24,KRSWEEHVTHWMGQTFNSDDRNTA,2.29

row,Variant,protein stability index
1,KRSWEEHVTHWMGQMFNSDDRNTA,2.17
2,KRSWEEHVTHWMGQHFNSDDRNTA,2.66
3,KRSWEEHVTHWMGQSFNSDDRNTA,2.3
4,KRSWEEHVTHWMGQQFNSDDRNTA,2.1
5,KRSWEEHVTHWMGQCFNSDDRNTA,2.35
6,KRSWEEHVTHWMGQIFNSDDRNTA,1.56
7,KRSWEEHVTHWMGQKFNSDDRNTA,2.85
8,KRSWEEHVTHWMGQEFNSDDRNTA,3.45
9,KRSWEEHVTHWMGQWFNSDDRNTA,2.92
10,KRSWEEHVTHWMEQPFNSDDRNTA,2.61
11,KRSWEEHVTHWMIQPFNSDDRNTA,2.25
12,KRSWEEHVTHWMHQPFNSDDRNTA,2.56
13,KRSWEEHVTHWMWQPFNSDDRNTA,1.95
14,KRSWEEHVTHWMVQPFNSDDRNTA,3.04
15,KRSWEEHVTHWMKQPFNSDDRNTA,2.13
16,KRSWEEHVTHWMQQPFNSDDRNTA,2.44
17,KRSWEEHVTHWMRQPFNSDDRNTA,2.23
18,KRSWEEHVTHWMDQPFNSDDRNTA,2.19
19,KRSWEEHVTHWMTQPFNSDDRNTA,2.18
20,KRSWEEHVTHWMMQPFNSDDRNTA,2.44
21,KRSWEEHVTHWMYQPFNSDDRNTA,2.08
22,KRSWEEHVTHWMNQPFNSDDRNTA,2.14
23,KRSWEEHVTHWMAQPFNSDDRNTA,2.53
24,KRSWEEHVTHWMFQPFNSDDRNTA,1.82

row,Variant,protein stability index
1,KRSWEEHVTHWMSQPFNSDDRNTA,2.63
2,KRSWEEHVTHWMCQPFNSDDRNTA,2.1
3,KRSWEEHVTHWMPQPFNSDDRNTA,2.88
4,KRSWEEHVTHWMLQPFNSDDRNTA,2.73
5,KRSWEEHVTHWRGQPFNSDDRNTA,2.49
6,KRSWEEHVTHWQGQPFNSDDRNTA,2.78
7,KRSWEEHVTHWHGQPFNSDDRNTA,2.94
8,KRSWEEHVTHWWGQPFNSDDRNTA,1.94
9,KRSWEEHVTHWAGQPFNSDDRNTA,2.44
10,KRSWEEHVTHWYGQPFNSDDRNTA,3.21
11,KRSWEEHVTHWGGQPFNSDDRNTA,2.63
12,KRSWEEHVTHWTGQPFNSDDRNTA,3.34
13,KRSWEEHVTHWIGQPFNSDDRNTA,2.53
14,KRSWEEHVTHWCGQPFNSDDRNTA,2.97
15,KRSWEEHVTHWDGQPFNSDDRNTA,2.7
16,KRSWEEHVTHWSGQPFNSDDRNTA,2.57
17,KRSWEEHVTHWNGQPFNSDDRNTA,2.79
18,KRSWEEHVTHWPGQPFNSDDRNTA,3.67
19,KRSWEEHVTHWLGQPFNSDDRNTA,2.94
20,KRSWEEHVTHWKGQPFNSDDRNTA,2.98
21,KRSWEEHVTHWEGQPFNSDDRNTA,2.32
22,KRSWEEHVTHWVGQPFNSDDRNTA,2.73
